Laboratory results from patent US12180485B2, “Repressible control of gene expression” (TRUSTEES OF BOSTON UNIVERSITY, priority 2020, dated 2024).

B1: Split 263/264: RfxCas13d split at 263/264 (SEQ ID NOs: 14, 15) with GIB CID domains (protein)
chain 1: IEKKKSFAKGMGVKSTLVSGSKVYMTTFAEGSDARLEKIVEGDSIRSVNEGEAFSAEMADKNAGYKIGNAKFSHPKGYAVVANNPLYTGPVQQDMLGLKETLEKRYFGESADGNDNICIQVIHNILDIEKILAEYITNAAYAVNNISGLDKDIIGFGKFSTVYTYDEFKDPEHHRAAFNNNDKLINAIKAQYDEFDNFLDNPRLGYFGQAFFSKEGRNYIINYGNECYDILALLSGLRHWVVHNNEEESRISRTWLYNLDKNL
chain 2: DNEYISTLNYLYDRITNELTNSFSKNSAANVNYIAETLGINPAEFAEQYFRFSIMKEQKNLGFNITKLREVMLDRKDMSEIRKNHKVFDSIRTKVYTMMDFVIYRYYIEEDAKVAAANKSLPDNEKSLSEKDIFVINLRGSFNDDQKDALYYDEANRIWRKLENIMHNIKEFRGNKTREYKKKDAPRLPRILPAGRDVSAFSKLMYALTMFLDGKEINDLLTTLINKFDNIQSFLKVMPLIGVNAKFVEEYAFFKDSAKIADELRLIKSFARMGEPIADARRAMYIDAIRILGTNLSYDELKALADTFSLDENGNKLKKGKHGMRNFIINNVISNKRFHYLIRYGDPAHLHEIAKNEAVVKFVLGRIADIQKKQGQNGKNQIDRYYETCIGKDKGKSVSEKVDALTKIITGMNYDQFDKKRSVIEDTGRENAEREKFKKIISLYLTVIYHILKNIVNINARYVIGFHCVERDAQLYKEKGYDINLKKLEEKGFSSVTKLCAGIDETAPDKRKDVEKEMAERAKESIDSLESANPKLYANYIKYSDEKKAEEFTRQINREKAKTALNAYLRNTKWNVIIREDLLRIDNKTCTLFRNKAVHLEVARYVHAYINDIAEVNSYFQLYHYIMQRIIMNERYEKSSGKVSEYFDAVNDEKKYNDRLLKLLCVPFGYCIPRFKNLSIEALFDRNEAAKFDKEKKKVSGNS
modifications: GIB CID domains attached
B2: SEQ ID NO: 804: inducible system polypeptide, probably Table 20 (GID-GAI) (protein)
chain: MAPKKKRKVGIHGVPAAKRDHHHHHHQDKKTMMMNEEDDGNGMDELLAVLGYKVRSSEMADVAQKLEQLEVMMSNVQEDDLSQLATETVHYNPAELYTWLDSMLTDLNSGGSGSGSSGGSGTDKGKSVSEKVDALTKIITGMNYDQFDKKRSVIEDTGRENAEREKFKKIISLYLTVIYHILKNIVNINARYVIGFHCVERDAQLYKEKGYDINLKKLEEKGFSSVTKLCAGIDETAPDKRKDVEKEMAERAKESIDSLESANPKLYANYIKYSDEKKAEEFTRQINREKAKTALNAYLRNTKWNVIIREDLLRIDNKTCTLFRNKAVHLEVARYVHAYINDIAEVNSYFQLYHYIMQRIIMNERYEKSSGKVSEYFDAVNDEKKYNDRLLKLLCVPFGYCIPRFKNLSIEALFDRNEAAKFDKEKKKVSGNSGSGPKKKRKV
B3: SEQ ID NO: 805: inducible system polypeptide, probably Table 20 (GID-GAI) (protein)
chain: MLDLASLILIEKKKSFAKGMGVKSTLVSGSKVYMTTFAEGSDARLEKIVEGDSIRSVNEGEAFSAEMADKNAGYKIGNAKFSHPKGYAVVANNPLYTGPVQQDMLGLKETLEKRYFGESADGNDNICIQVIHNILDIEKILAEYITNAAYAVNNISGLDKDIIGFGKFSTVYTYDEFKDPEHHRAAFNNNDKLINAIKAQYDEFDNFLDNPRLGYFGQAFFSKEGRNYIINYGNECYDILALLSGLRHWVVHNNEEESRISRTWLYNLDKNLDNEYISTLNYLYDRITNELTNSFSKNSAANVNYIAETLGINPAEFAEQYFRFSIMKEQKNLGFNITKLREVMLDRKDMSEIRKNHKVFDSIRTKVYTMMDFVIYRYYIEEDAKVAAANKSLPDNEKSLSEKDIFVINLRGSFNDDQKDALYYDEANRIWRKLENIMHNIKEFRGNKTREYKKKDAPRLPRILPAGRDVSAFSKLMYALTMFLDGKEINDLLTTLINKFDNIQSFLKVMPLIGVNAKFVEEYAFFKDSAKIADELRLIKSFARMGEPIADARRAMYIDAIRILGTNLSYDELKALADTFSLDENGNKLKKGKHGMRNFIINNVISNKRFHYLIRYGDPAHLHEIAKNEAVVKFVLGRIADIQKKQGQNGKNQIDRYYETCIGKSGGSGSGSSGGSGTMAASDEVNLIESRTVVPLNTWVLISNFKVAYNILRRPDGTFNRHLAEYLDRKVTANANPVDGVFSFDVLIDRRINLLSRVYRPAYADQEQPPSILDLEKPVDGDIVPVILFFHGGSFAHSSANSAIYDTLCRRLVGLCKCVVVSVNYRRAPENPYPCAYDDGWIALNWVNSRSWLKSKKDSKVHIFLAGDSSGGNIAHNVALRAGESGIDVLGNILLNPMFGGNERTESEKSLDGKYFVTVRDRDWYWKAFLPEGEDREHPACNPFSPRGKSLEGVSFPKSLVVVAGLDLIRDWQLAYAEGLKKAGQEVKLMHLEKATVGFYLLPNNNHFHNVMDEISAFVNAECLDLASLIL
B4: SEQ ID NO: 809: inducible system polypeptide, probably Table 20 (GID-GAI) (protein)
chain: MAASDEVNLIESRTVVPLNTWVLISNFKVAYNILRRPDGTFNRHLAEYLDRKVTANANPVDGVFSFDVLIDRRINLLSRVYRPAYADQEQPPSILDLEKPVDGDIVPVILFFHGGSFAHSSANSAIYDTLCRRLVGLCKCVVVSVNYRRAPENPYPCAYDDGWIALNWVNSRSWLKSKKDSKVHIFLAGDSSGGNIAHNVALRAGESGIDVLGNILLNPMFGGNERTESEKSLDGKYFVTVRDRDWYWKAFLPEGEDREHPACNPFSPRGKSLEGVSFPKSLVVVAGLDLIRDWQLAYAEGLKKAGQEVKLMHLEKATVGFYLLPNNNHFHNVMDEISAFVNAECSGGSGSGSSGGSGTSYDELKALADTFSLDENGNKLKKGKHGMRNFIINNVISNKRFHYLIRYGDPAHLHEIAKNEAVVKFVLGRIADIQKKQGQNGKNQIDRYYETCIGKDKGKSVSEKVDALTKIITGMNYDQFDKKRSVIEDTGRENAEREKFKKIISLYLTVIYHILKNIVNINARYVIGFHCVERDAQLYKEKGYDINLKKLEEKGFSSVTKLCAGIDETAPDKRKDVEKEMAERAKESIDSLESANPKLYANYIKYSDEKKAEEFTRQINREKAKTALNAYLRNTKWNVIIREDLLRIDNKTCTLFRNKAVHLEVARYVHAYINDIAEVNSYFQLYHYIMQRIIMNERYEKSSGKVSEYFDAVNDEKKYNDRLLKLLCVPFGYCIPRFKNLSIEALFDRNEAAKFDKEKKKVSGNSGSGPKKKRKVPKKKRKV
B5: SEQ ID NO: 801: inducible system polypeptide, probably Table 20 (GID-GAI) (protein)
chain: MLDLASLILIEKKKSFAKGMGVKSTLVSGSKVYMTTFAEGSDARLEKIVEGDSIRSVNEGEAFSAEMADKNAGYKIGNAKFSHPKGYAVVANNPLYTGPVQQDMLGLKETLEKRYFGESADGNDNICIQVIHNILDIEKILAEYITNAAYAVNNISGLDKDIIGFGKFSTVYTYDEFKDPEHHRAAFNNNDKLINAIKAQYDEFDNFLDNPRLGYFGQAFFSKEGRNYIINYGNECYDILALLSGLRHWVVHNNEEESRISRTWLYNLDKNLDNEYISTLNYLYDRITNELTNSFSKNSAANVNYIAETLGINPAEFAEQYFRFSIMKEQKNLGFNITKLREVMLDRKDMSEIRKNHKVFDSIRTKVYTMMDFVIYRYYIEEDAKVAAANKSLPDNEKSLSEKDIFVINLRGSFNDDQKDALYYDEANRIWRKLENIMHNIKEFRGNKTREYKKKDAPRLPRILPAGRDVSAFSKLMYALTMFLDGKEINDLLTTLINKFDNIQSFLKVMPLIGVNAKFVEEYAFFKDSAKIADELRLIKSFARMGEPIADARRAMYIDAIRILGTNLSYDELKSGGSGSGSSGGSGTMAASDEVNLIESRTVVPLNTWVLISNFKVAYNILRRPDGTFNRHLAEYLDRKVTANANPVDGVFSFDVLIDRRINLLSRVYRPAYADQEQPPSILDLEKPVDGDIVPVILFFHGGSFAHSSANSAIYDTLCRRLVGLCKCVVVSVNYRRAPENPYPCAYDDGWIALNWVNSRSWLKSKKDSKVHIFLAGDSSGGNIAHNVALRAGESGIDVLGNILLNPMFGGNERTESEKSLDGKYFVTVRDRDWYWKAFLPEGEDREHPACNPFSPRGKSLEGVSFPKSLVVVAGLDLIRDWQLAYAEGLKKAGQEVKLMHLEKATVGFYLLPNNNHFHNVMDEISAFVNAECLDLASLIL

Tested on: mCherry expression in HEK293 FT cells
Experiment: Inducible split RfxCas13d (GIB, RAP, ABA, Dano, GRZ CID domains; NES/NLS variants) mCherry knockdown, leakiness and inducibility
Format: cell-based
Conditions: for performance in the tested conditions: inducible polypeptide systems of Tables 18-22
From the text: FIG. 6A-6C is a series of schematics and graphs showing that split RfxCas13d's reconstituted and functioned to knockdown mCherry expression in HEK293 FT cells FIG. 6A is a schematic showing split sites selected throughout RfxCas13d sequence. FIG. 6B is a bar graph showing mCherry expression under 4 conditions for gibberellin-inducible, rapalog-inducible, and abscisic acid-inducible inducible split Cas13d designs. In FIG. 6B and FIG. 6C, the left-right order of the bars for each split site is the same as the left-right order of the legend for each bar graph.
FIG. 7A-7E is a series of schematics and graphs showing a functional and inducible split Cas13d design. FIG. 7A is a bar graph showing additional split sites selected in RfxCas13d and tested with GIB CID domains. […] In FIG. 7A and FIG. 7C, the left-right order of the bars for each split site is the same as the left-right order of the legend. FIG. 7B is a schematic showing the design to compartmentalize splits. Compartmentalizing moieties facilitates the reduction of leakiness. […] FIG. 7D is a schematic showing the experiment flow for testing reversibility of the inducible split Cas13d's.
FIG. 8A-8B is a series of schematics and graphs showing that split RfxCas13d's reconstituted upon drug-induced dimerization and knocked down mCherry expression in HEK293 FT cells. FIG. 8A is a bar graph showing quantification of system performance. The left-right order of the bars for each split site is the same as the top-down order of the legend. […] System performance in leakiness score (left axis) and induced activity (right axis) by GIB, RAP, ABA, and Dano-inducible split Cas13d designs.
FIG. 10A-10B is a series of schematics and graphs showing performance optimization through separating split Cas13d moieties in different cellular compartments. […] The left-right order of the bars for each bar graph is the same as the top-down order of the legend.
FIG. 11 is a series of schematics and graphs showing the testing of reversed orientation (dark grey dots) of CID domains with respect to split Cas13d pieces against original orientations (light grey dots) designed for GIB, ABA, Dano, and GRZ inducible systems.

[1] = RfxCas13d split with GIB CID domains

Molecule | knockdown efficiency [1] | leaky off state activity [1] | performance in the tested conditions
B1 | over 60% | minimum leaky off state activity | –
B2 | – | – | highest performance
B3 | – | – | highest performance
B4 | – | – | highest performance
B5 | – | – | highest performance
